Our source for the casein hydrolysis (% control) values is patent publication US20030027303A1.

Common to all, as to assay: cell-based or functional assay
Experiment [1] has as its target gut proteases of P. octo (crude gut extract) (Planotortrix octo).
Experiment [2] deals with gut proteases of H. armigera (crude gut extract) (Helicoverpa armigera).
Experiment [3] has as its target gut proteases of S. litura (crude gut extract) (Spodoptera litura).
Experiment [4] deals with gut proteases of A. infusa (crude gut extract) (Agrotis infusa).
Experiment [5] has as its target gut proteases of H. punctigera (crude gut extract) (Helicoverpa punctigera).
The target in experiment [6] is gut proteases of T. commodus (crude gut extract) (Teleogryllus commodus).
Experiment [7] has as its target gut proteases of A. tasmaniae (crude gut extract) (Aphodius tasmaniae).
Experiment [8] addresses gut proteases of E. postvitiana (crude gut extract) (Epiphyas postvittana).
In experiment [9] the target is gut proteases of W. cervinata (crude gut extract) (Wiseana cervinata).
Experiment [10] has as its target gut proteases of C. obliquana (crude gut extract) (Ctenopseustis obliquana).
The target in experiment [11] is gut proteases of sugar cane grub (crude gut extract).
Experiment [12] addresses gut proteases of L. serricata (crude gut extract) (Lucilla sericata).
The target in experiment [13] is gut proteases of C. zealandica (crude gut extract) (Costelytra zealandica).
For experiment [14], the target named is gut proteases of C. rufifacies (crude gut extract) (Chrysomya rufifacies).
The target of experiment [15] is gut proteases of P. opercullela (crude gut extract) (Phthorimaea opercullela).

B1: C1, N. alata chymotrypsin inhibitor (peak 1 from HPLC) (peptide)
peptide: DRICTNCCAGTKGCKYFSDDGTFVCEGESDPRNPKACTLNCDPRIAYGVCPRS
Regarding B1, the casein hydrolysis (% control) in [1] stood at 67.2 % control; in experiment [2], 32.7 % control; in experiment [3], 33.6 % control; in [4], 40.2 % control; in experiment [5], 29.3 % control; in experiment [6], 35 % control. The casein hydrolysis (% control) was determined as 34.2 % control in experiment [7]; 45.4 % control in experiment [8]; 82.9 % control in [9]; 49.1 % control in experiment [10]; 43.9 % control in [11]; 100 % control in experiment [12]. The casein hydrolysis (% control) worked out at 54.7 % control in experiment [13], 37.8 % control in experiment [14] and 100 % control in experiment [15].
